Experimental data taken from paper PMC4243253 (Biochemical Journal, 2014).

B1: Pseudomonas aeruginosa kynurenine formamidase KynB, His-tagged (enzyme)
chain: MTSLRYWDISPALDPNTPTWPGDTPFQQEWAARLDEQCPVNVGRITLSPHTGAHVDGPLHYRADGLPIGQVPLDIYMGPCRVIHCIGANPLVTPEHLAGQLDDLPSRVLLRTFERVPANWPEGFCAIAPATIECLAERGVRLVGIDTPSLDPQHSKTLDAHHAVGRHGMAILEGVVLDDVPAGDYELLALPLKFTHLDASPVRAVLRALPTAE
notes: also called PaKynB; PaKynB-His; source: E. coli BL21(DE3)pLysS, purified (HisTrap, SEC Superdex75); not shown: His6, N-terminal, kept
B2: Burkholderia cenocepacia kynurenine formamidase KynB (enzyme)
chain: MDTLWDISPPVSPATPVWPGDTPVAVERVWRMEAGSPVNVARLTLSPHTGAHCDAPLHYDADGAPIGAVPLDTYLGPCRVIHCIGAAPVVRPADVEAALDGVPPRVLLRTYARAAVEQWDSNFCAVAPDTVDLLAAHGVKLIGIDTPSLDPQESKTMDAHRRVRAHRMAILEGIVLDDVPPGDYELIALPLKFATLDASPVRAVLRALPAQAS
notes: also called BcKynB; KFase

Target: the molecule itself
Assay: SEC

| Protein | stoichiometry N |
| --- | --- |
| B1 | 2 |
| B2 | 2 |
